Here are results for three molecules from patent US12383631 (BRIGHT PEAK THERAPEUTICS, dated 2025).

The target of assay [1] is T1, recombinant Human Fc gamma RIIB/CD32b Avi-tag Protein (R&D systems, AVI1875-050) (human, UniProt P31994 46-217).
T1 construct: also called FcγRIIb (CD32b); not shown: Avi-tag
T1 sequence (looked up): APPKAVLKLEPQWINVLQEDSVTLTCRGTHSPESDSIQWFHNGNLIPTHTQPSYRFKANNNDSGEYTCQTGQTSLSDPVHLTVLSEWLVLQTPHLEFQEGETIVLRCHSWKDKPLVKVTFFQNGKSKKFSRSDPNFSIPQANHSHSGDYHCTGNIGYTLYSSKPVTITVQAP
The assay can be described thus: ELISA; antibody coated, receptor titrated, anti-His-HRP. How it is done:
(§1) The interaction of the unmodified and of conjugated antibodies with human Fc gamma receptors I (FcγRI/CD64), with human Fc gamma receptors IIa (FcγRIIa/CD32a), with inhibitory human Fc gamma receptors IIb (FcγRIIb/CD32b), and with human Fc gamma receptors III FcγRIIIa/CD16 were measured by ELISA.
(§2) Briefly, Corning high-binding half-area plates (Fisher Scientific, Reinach, Switzerland) were coated overnight at 4° C. with 25 μl of unmodified and of conjugated anti-PD1 antibodies at 2.5 μg/ml in PBS. Plates were then washed four times with 100 μl of PBS-0.02% Tween20. Plates surfaces were blocked with 25 μl of PBS-0.02% Tween20-1% BSA at 37° C. during 1 h. Plates were then washed four times with 100 μl of PBS-0.02% Tween20. Then twenty-five microliters of either recombinant Human Fc gamma RI/CD64 Protein (R&D systems, 1257-FC-050, CF), recombinant Human Fc gamma RIIA/CD32a (H167) Protein (R&D systems, 9595-CD-050, CF), recombinant Human Fc gamma RIIB/CD32b Avi-tag Protein (R&D systems, AVI1875-050, CF), or recombinant Human Fc gamma RIIIA/CD16a Protein (R&D systems, 4325-FC-050; CF) were added in five-fold serial dilutions ranging from 1000 nM to 0.001 nM into PBS-0.02% Tween20-0.1% BSA and incubated at 37° C. during 2 h. Plates were then washed four times with 100 μl of PBS-0.02% Tween20. Twenty-five microliters of a 1/500 HRP-anti-His antibody in PBS—0.02% Tween20-0.1% BSA (R&D systems, anti-HIS—HRP Ab, #MAB050H) were added to each well and plates were incubated at Room Temperature during 1 h. Plates were then washed four times with 100 μl of PBS-0.02% Tween20. Fifty microliters of TMB substrate reagent (#CL07, Merck, Buchs, Switzerland) were added to each well and incubated at 37° C. during 5 min. After 5 min at 37° C., Horseradish peroxidase reaction was stopped by adding 50 μl/well of 0.5M H2SO4 stop solution. ELISA signal was then measured at 450 nm on an EnSpire plate reader from Perkin Elmer (Schwerzenbach, Switzerland). Binding Affinity of Reference Antibodies and Immunocytokines with Human Fc Gamma Receptors as Measured by ELISA
Background: An ELISA detects its analyte on a solid surface through an enzyme-linked reagent.

Assay [2] concerns the target T2, recombinant Human Fc gamma RIIIA/CD16a Protein (R&D systems, 4325-FC-050) (human, UniProt P08637 17-208).
T2 construct: detected with an anti-His antibody; tag and allotype not described; also called FcγRIIIa (CD16)
The assay is described as above. The method, then:
as §1, §2

Assay [3] has as its target T3, recombinant Human Fc gamma RIIA/CD32a (H167) Protein (R&D systems, 9595-CD-050) (human, UniProt P12318 36-218).
T3 construct: detected with an anti-His antibody; tag not described; also called FcγRIIa (CD32a)
T3 sequence (looked up): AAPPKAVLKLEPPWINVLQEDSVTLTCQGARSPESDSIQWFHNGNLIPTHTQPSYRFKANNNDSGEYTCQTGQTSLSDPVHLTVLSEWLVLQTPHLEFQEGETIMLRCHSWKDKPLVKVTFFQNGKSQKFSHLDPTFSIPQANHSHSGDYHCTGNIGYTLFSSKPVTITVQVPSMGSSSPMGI
The description is as above. The method, then:
as §1, §2

Assay [4] has as its target T4, recombinant Human Fc gamma RI/CD64 Protein (R&D systems, 1257-FC-050) (human, UniProt P12314 16-288).
T4 construct: detected with an anti-His antibody; tag not described; also called FcγRI/CD64; human Fc gamma receptor I
Described as above. How it is done:
as §1, §2

The target of assay [5] is T5, recombinant biotinylated human FcRn (human, UniProt P55899 24-297; P61769 21-119, limits assumed, biotinylated).
T5 construct: also called human neonatal Fc receptor (FcRn)
The assay can be described thus: AlphaLISA competition at pH 6; competitor: human IgG on acceptor beads. The method, then:
The interaction of the unmodified and of conjugated anti-PD1 antibodies with the human neonatal Fc receptor (FcRn) at pH 6 was measured using the AlphaLISA® Human FcRn Binding Kit (AL3095C) from Perkin Elmer (Schwerzenbach, Switzerland).
After 90 min at 23° C. in the dark, AlphaLISA® signal was measured on an EnSpire plate reader (Excitation at 680 nm, Emission at 615 nm) from Perkin Elmer (Schwerzenbach, Switzerland). Binding Affinity of Reference Antibodies and Immunocytokines with the Human Neonatal Fc Receptor as Measured by AlphaLISA
(Bead proximity is the source of the signal in Alpha formats.)

In assay [6] the target is T6, Biotinylated Recombinant Human PD-1/CD279-Fc Chimera, carrier-free (Biolegend #789406) (human, UniProt Q15116 25-167, biotinylated).
T6 construct: bought; also called recombinant biotinylated human PD-1; Fc part of the bought chimera not given
Kind of assay: ELISA: antibody coated on the plate (5 ug/ml), biotinylated human PD-1/CD279-Fc titrated in solution (x-axis), streptavidin-HRP/TMB, 450 nm. The method, then:
(§3) The interaction of the unmodified antibodies and corresponding IL-18 immunocytokines with relevant immune cell associated antigen are measured by ELISA assay. For these studies, Corning high-binding half-area plates (Fisher Scientific, Reinach, Switzerland) are coated overnight at 4° C. with 25 μl of unmodified antibodies corresponding IL-18 immunocytokines at 5 μg/ml in PBS. Plates are then washed four times with 100 μl of PBS-0.02% Tween20. Plate surfaces are blocked with 25 μl of PBS-0.02% Tween20-1% BSA at 37° C. during 1 h. Plates are then washed four times with 100 μl of PBS-0.02% Tween20. […] Plates are then washed four times with 100 μl of PBS-0.02% Tween20. Twenty-five microliters of Streptavidin-Horseradish peroxidase (#RABHRP3, Merck, Buchs, Switzerland) diluted at 1:500 into PBS-0.02% Tween20-0.1% BSA are added to each well and incubated at Room Temperature during 30 min. Plates are then washed four times with 100 μl of PBS-0.02% Tween20. Fifty microliters of TMB substrate reagent (#CL07, Merck, Buchs, Switzerland) are added to each well and incubated at 37° C. during 5 min. After 5 min at 37° C., Horseradish peroxidase reaction is stopped by adding 50 μl/well of 0.5M H_2SO_4 stop solution. ELISA signal is then measured at 450 nm on an ENSPTRE® plate reader from Perkin Elmer (Schwerzenbach, Switzerland).

The target in assay [7] is T6, Biotinylated Recombinant Human …. Kind of assay: ELISA; antibody coated, biotinylated PD-1-Fc titrated. The method, then:
as §3

The target of assay [8] is T7, His-tagged human PD1 (R&D #8986-PD) (human, UniProt Q15116 25-167).
T7 construct: bought; not shown: His tag
The assay can be described thus: BLI (Octet), antibody on AHC sensor, His-tagged PD-1 as analyte. An excerpt:
(§4) Based on Bio-Layer Interferometry (BLI), Octet® BLI systems enable real-time, label-free analysis for the determination of kinetics and affinity of a ligands to its receptor. Here anti-human IgG FC Capture (AHC) sensors are loaded with the test items (ICs). Sensors are first dipped into a kinetic buffer for baseline measurement, then into an analyte solution, here human PD1, to allow association and again into a buffer solution where the analyte is allowed to come off the ligand (dissociation). Several concentrations of analyte are run in parallel and enable the calculation of affinity parameters: Ka, Kd, KD.
(§5) Typically, first, the sensors are regenerated by 3 cycles of dipping into 10 mM glycine solution at pH=2 for 20 seconds, followed by 20 second kinetics buffer and a final 60 seconds in kinetics buffer to establish the initial signal (baseline). Second, the loading column will contain the ligand, here the unmodified PD-1 antibodies and of IL-18 polypeptide conjugated PD-1 antibody, at a fixed concentration determined in the loading scout experiment (20 ug/mL). Then another wash/baseline step allows non immobilized proteins to be washed away. The association column will contain the 2-fold dilution series of the analyte (His-tagged human PD1, R&D #8986-PD) including a no analyte control. […] The dissociation designates the sensors to return to previous baseline column with kinetics buffer. After acquisition, the data is analyzed with Data Analysis Studio software (Sartorius). Data sets are first preprocessed by subtracting references samples and aligning curves on the baseline step. Group fitting is then applied to the data series and kinetics parameters are calculated.

Assay [9] has as its target T6, Biotinylated Recombinant Human …. The assay can be described thus: ELISA; immunocytokine coated, biotinylated PD-1-Fc titrated. How it is done:
as §3

Assay [10] has the same target. Kind of assay: ELISA: immunocytokine coated on the plate (5 ug/ml), biotinylated human PD-1/CD279-Fc titrated in solution (x-axis), streptavidin-HRP/TMB, 450 nm. How it is done: as §3
Assay [11] addresses T7, His-tagged human PD1 (R&D #8986-PD). The assay can be described thus: BLI (Octet), immunocytokine on AHC sensor, His-tagged PD-1 as analyte.
Text: as §4, §5

For orientation: Kd means the free concentration of one partner at which half of the binding sites on the other are occupied at equilibrium, for simple one-to-one binding. In general, EC50 (read off the curve) refers to the midpoint of the concentration-response curve. By koff is commonly meant the rate constant with which the complex falls apart. In general, kon refers to the rate constant with which the complex forms.

B1: Durvalumab/Imfinzi (antibody, human IgG1, kappa)
heavy: EVQLVESGGGLVQPGGSLRLSCAASGFTFSRYWMSWVRQAPGKGLEWVANIKQDGSEKYYVDSVKGRFTISRDNAKNSLYLQMNSLRAEDTAVYYCAREGGWFGELAFDYWGQGTLVTVSSASTKGPSVFPLAPSSKSTSGGTAALGCLVKDYFPEPVTVSWNSGALTSGVHTFPAVLQSSGLYSLSSVVTVPSSSLGTQTYICNVNHKPSNTKVDKRVEPKSCDKTHTCPPCPAPEFEGGPSVFLFPPKPKDTLMISRTPEVTCVVVDVSHEDPEVKFNWYVDGVEVHNAKTKPREEQYNSTYRVVSVLTVLHQDWLNGKEYKCKVSNKALPASIEKTISKAKGQPREPQVYTLPPSREEMTKNQVSLTCLVKGFYPSDIAVEWESNGQPENNYKTTPPVLDSDGSFFLYSKLTVDKSRWQQGNVFSCSVMHEALHNHYTQKSLSLSPGK
light: EIVLTQSPGTLSLSPGERATLSCRASQRVSSSYLAWYQQKPGQAPRLLIYDASSRATGIPDRFSGSGSGTDFTLTISRLEPEDFAVYYCQQYGSLPWTFGQGTKVEIKRTVAAPSVFIFPPSDEQLKSGTASVVCLLNNFYPREAKVQWKVDNALQSGNSQESVTEQDSKDSTYSLSSTLTLSKADYEKHKVYACEVTHQGLSSPVTKSFNRGEC
notes: also called MEDI-4736
In the case of B1, the Kd was 233 nM in assay [1]; 234 nM in [2]; 160 nM in assay [3]; 2.34 nM in assay [4]; 8.31 nM in assay [5].

B2: LZM-009 (antibody, V domains shown)
VH: QVQLVQSGAEVKKPGASVKVSCKASGYTFTSYYMYWVRQAPGQGLEWMGGVNPSNGGTNFNEKFKSRVTITADKSTSTAYMELSSLRSEDTAVYYCARRDYRYDMGFDYWGQGTTVTVSS
VL: EIVLTQSPATLSLSPGERATISCRASKGVSTSGYSYLHWYQQKPGQAPRLLIYLASYLESGVPARFSGSGSGTDFTLTISSLEPEDFATYYCQHSRELPLTFGTGTKVEIK
notes: also called LZM-009 anti-PD-1 antibody
Regarding B2, in assay [6], the “EC50 (read off the curve)” value is about 0.06 nM. For the same molecule, in assay [7], the Kd is 0.0407 nM. In [8], the Kd turned out to be 23.5 nM, the koff was 0.0077 s⁻¹ and the on-rate (kon) is 342000 M⁻¹ s⁻¹.

B3: Composition A (LZM-009 conjugated to IL-18 polypeptide of SEQ ID NO: 30) (other)
VH: B2 VH
VL: B2 VL
chain: YFGKLKSKLSIIRNLNDQVLFIDQGNRPLFEDMTDSDARDNAPRTIFIISMYADSQPRGMAVAISVKCEKISTLSAENKIISFKEMNPPDNIKDTKSDIIFFQRSVPGHDNKMQFESSSYEGYFLAAEKERDLFKLILKKEDELGDRSIMFTVQNED
On to B3, for which, in assay [9], the dissociation constant Kd amounted to 0.0467 nM. Besides, in assay [10], the 50% effective concentration (EC50 (read off the curve)) is about 0.07 nM. Besides, in [11], the dissociation constant (Kd) was 11.5 nM, the off-rate (koff) is 0.00479 s⁻¹ and the kon is 454000 M⁻¹ s⁻¹.
